# Measured values reported in US20050089871.
# Target: D1 receptor of human renal proximal tubule cells (UniProt P21728)
# Sequence (P21728 whole entry): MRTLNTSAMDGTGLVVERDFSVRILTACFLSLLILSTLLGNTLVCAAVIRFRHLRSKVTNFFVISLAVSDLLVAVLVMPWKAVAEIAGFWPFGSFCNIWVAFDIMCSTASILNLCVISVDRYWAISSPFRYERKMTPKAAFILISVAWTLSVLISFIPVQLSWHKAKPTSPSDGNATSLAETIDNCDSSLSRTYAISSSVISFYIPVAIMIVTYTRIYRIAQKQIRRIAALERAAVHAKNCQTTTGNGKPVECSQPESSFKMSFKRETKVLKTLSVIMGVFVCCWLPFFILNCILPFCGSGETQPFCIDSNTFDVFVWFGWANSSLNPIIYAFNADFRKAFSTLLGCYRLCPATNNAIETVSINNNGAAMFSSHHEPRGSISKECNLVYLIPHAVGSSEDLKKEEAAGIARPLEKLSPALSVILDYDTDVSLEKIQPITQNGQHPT
substance,measurement,value
GRK4 of human renal proximal tubule cells,"serine phosphorylation of the D1 receptor (immunoprecipitation with anti D1 receptor antibody, anti-phosphoserine immunoblot) after GRK4 antisense treatment",GRK4 antisense treatment almost completely abolished the phosphorylation of the D1 receptor in fenoldopam-treated renal proximal tubule cells from hypertensive subjects to levels that are lower than basal values
